{
  "source": "paper PMC12853789",
  "about": "“Identification of receptor-binding domains of Bacteroidales antibacterial pore-forming toxins” (The Journal of Biological Chemistry, 2025)",
  "molecular_target": "T1, BSAP-1 (BF638R_1646), recombinant soluble protein with N-terminal His tag (Bacteroides fragilis 638R, UniProt E1WTV1 17-372)",
  "T1 construct": "BSAP-1 of Bacteroides fragilis 638R (BF638R_1646, GenBank CBW22174.1), without the N-terminal signal peptide and the lipidated cysteine (C16); the protein ends at P372; a Ser-Ser-Gly linker follows the His tag; Limits follow from 'excluding the signal peptide and conserved cysteine' (C16) and the CTD's end at P372; no cleavage of the tag is told; also called full-length BSAP-1; purified BSAP-1; …",
  "T1 sequence": "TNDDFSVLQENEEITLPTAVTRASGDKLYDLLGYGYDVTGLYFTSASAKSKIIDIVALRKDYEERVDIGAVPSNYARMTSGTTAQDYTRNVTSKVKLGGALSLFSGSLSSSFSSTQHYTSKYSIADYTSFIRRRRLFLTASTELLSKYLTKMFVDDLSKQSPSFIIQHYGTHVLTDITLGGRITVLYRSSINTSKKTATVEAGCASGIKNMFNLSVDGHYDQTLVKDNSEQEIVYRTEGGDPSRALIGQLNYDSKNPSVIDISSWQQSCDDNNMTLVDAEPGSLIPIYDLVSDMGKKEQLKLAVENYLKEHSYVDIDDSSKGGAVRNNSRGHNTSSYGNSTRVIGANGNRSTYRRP",
  "assay": "cryo-EM structure; peak 1 fractions of the BSAP-1 pull-down, in DDM, graphene oxide coated grids; map of the complex ~7 Å, local refinement on B1R^S 4.45 Å",
  "conditions": "one partner purified",
  "data": [
    {"binder": "B1R^S, BSAP-1 receptor (BF9343_1563), untagged, overexpressed in Bacteroides thetaiotaomicron (receptor, Bacteroides fragilis NCTC 9343, UniProt Q5LEV6 1-556, looked up, B1R^S, outer membrane beta-barrel protein of Bacteroides fragilis NCTC 9343 (BF9343_1563, GenBank CAH07344.1); theoretical molecular weight 62 kDa; untagged; in the pull-down it stood in a membrane fraction, in microscopy on cells) QTVYDAAKITGKDLNGTARFVGMGGAMGALGGDISTIGTNPAGIGIYRSNDFMTSFGFSSYGTESKYLGDKFKSDKIQGSFDNLGFVFASKIGNETSLRYVNFGFNYHKAKSFYKNMNMKGGLGNSSQTYQMAQQASGITKWGDYPYDDPEIGWLSILGYDGWLISDITTDKMNAAGKPNSPYVDKDGNQRYDANGKPLYTTPGNYYGMYDDGVANFHSQERGGIDQYDFNVAFNFNDRFYLGLTLGAYAVDYSKYTYYSEAYTGANAPQNYNLRSWNKVRGSGFDLKLGTIIRPFENSPFRIGLAIHTPTFYNLDYKTSARVESDVLNVETGKIDQWSVDTRDKLPGNGDMVREFRLQTPWTYNVSLGYTIGTSLALGAEYEYQDYSTMKFRGPTGSSSEFTFENSTRPMMKGVNTLRLGLEYKVIPQFALRAGYNYTSAIFHGDAFKDLPYYSIQTDTDWANTKALSNYTLGIGYRGSVFYADLAYKFSTYNEDFYPFVNKYEENNATTVLTPETTKVTNTRSQVLFTLGLRF", "values": [
      {"measurement": "stoichiometry N", "value": 1}
    ]}
  ]
}
